Data from patent publication US20150315260A1 (Sanofi, published 2015).
Non-standard residues stand in square brackets, D forms with d. No end group written: not given here. Aib = CC(C)(N)C(=O)O

How the values were obtained:
Experiment in all cases: cell-based or functional assay
human GLP-1 receptor = human GLP-1 receptor (human, UniProt P43220 24-463)
human glucagon receptor = human glucagon receptor (human, UniProt P47871 26-477)
human GIP receptor = biological target: T1, human GIP receptor (human, UniProt P48546 22-466)
T1 sequence (looked up): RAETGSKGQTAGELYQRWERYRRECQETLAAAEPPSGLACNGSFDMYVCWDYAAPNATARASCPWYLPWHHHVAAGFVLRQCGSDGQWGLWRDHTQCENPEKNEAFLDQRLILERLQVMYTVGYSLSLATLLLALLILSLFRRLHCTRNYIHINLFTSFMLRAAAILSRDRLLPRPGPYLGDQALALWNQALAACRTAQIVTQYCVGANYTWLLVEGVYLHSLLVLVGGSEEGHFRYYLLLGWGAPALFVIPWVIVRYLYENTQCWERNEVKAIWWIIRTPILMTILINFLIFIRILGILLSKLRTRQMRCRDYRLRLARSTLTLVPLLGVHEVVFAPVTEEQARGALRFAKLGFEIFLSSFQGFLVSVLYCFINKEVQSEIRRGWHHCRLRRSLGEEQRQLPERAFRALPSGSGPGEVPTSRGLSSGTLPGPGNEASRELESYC

Chain of human glucagon receptor (P47871 26-477): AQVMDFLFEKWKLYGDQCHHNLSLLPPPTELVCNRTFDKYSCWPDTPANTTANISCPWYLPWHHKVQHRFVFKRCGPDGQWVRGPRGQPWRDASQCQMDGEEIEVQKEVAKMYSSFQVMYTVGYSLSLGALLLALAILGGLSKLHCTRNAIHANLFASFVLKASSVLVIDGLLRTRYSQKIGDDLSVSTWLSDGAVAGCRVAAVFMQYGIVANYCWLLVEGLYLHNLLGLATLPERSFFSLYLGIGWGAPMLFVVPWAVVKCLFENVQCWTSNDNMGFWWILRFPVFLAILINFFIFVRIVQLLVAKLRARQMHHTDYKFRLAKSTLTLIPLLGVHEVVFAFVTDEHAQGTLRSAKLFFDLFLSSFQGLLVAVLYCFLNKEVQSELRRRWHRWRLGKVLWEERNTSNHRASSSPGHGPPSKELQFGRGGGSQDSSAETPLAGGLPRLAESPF

B1: exendin-4 derivative SEQ ID NO: 23 (comparison compound, non-functionalized Lys in position 14) (peptide)
peptide: H[Aib]QGTFTSDLSKQKDEQRAKLFIEWL[Aib]AGGPSSGAPPPS-NH2
modifications: N-terminus assumed
SMILES: CC[C@H](C)[C@H](NC(=O)[C@H](Cc1ccccc1)NC(=O)[C@H](CC(C)C)NC(=O)[C@H](CCCCN)NC(=O)[C@H](C)NC(=O)[C@H](CCCNC(=N)N)NC(=O)[C@H](CCC(N)=O)NC(=O)[C@H](CCC(=O)O)NC(=O)[C@H](CC(=O)O)NC(=O)[C@H](CCCCN)NC(=O)[C@H](CCC(N)=O)NC(=O)[C@H](CCCCN)NC(=O)[C@H](CO)NC(=O)[C@H](CC(C)C)NC(=O)[C@H](CC(=O)O)NC(=O)[C@H](CO)NC(=O)[C@@H](NC(=O)[C@H](Cc1ccccc1)NC(=O)[C@@H](NC(=O)CNC(=O)[C@H](CCC(N)=O)NC(=O)C(C)(C)NC(=O)[C@@H](N)Cc1c[nH]cn1)[C@@H](C)O)[C@@H](C)O)C(=O)N[C@@H](CCC(=O)O)C(=O)N[C@@H](Cc1c[nH]c2ccccc12)C(=O)N[C@@H](CC(C)C)C(=O)NC(C)(C)C(=O)N[C@@H](C)C(=O)NCC(=O)NCC(=O)N1CCC[C@H]1C(=O)N[C@@H](CO)C(=O)N[C@@H](CO)C(=O)NCC(=O)N[C@@H](C)C(=O)N1CCC[C@H]1C(=O)N1CCC[C@H]1C(=O)N1CCC[C@H]1C(=O)N[C@@H](CO)C(N)=O
Human GLP-1 receptor
  EC50 hGLP-1R (cAMP formation): 0.0525 nM
Human glucagon receptor
  EC50 hGlucagon-R (cAMP formation): 42.9 nM
Human GIP receptor
  EC50 hGIP-1 (cAMP formation, GIP receptor): 177 nM
